Measurements as given in PMC8809517, “Cofactor-independent RNA editing by a synthetic S-type PPR protein”.
Residue numbers refer to the chain shown, from its start.

T1: GFP-9S library array, motif 4 ND N98T;D124Y (synthetic construct, N98T;D124Y)
T1 chain: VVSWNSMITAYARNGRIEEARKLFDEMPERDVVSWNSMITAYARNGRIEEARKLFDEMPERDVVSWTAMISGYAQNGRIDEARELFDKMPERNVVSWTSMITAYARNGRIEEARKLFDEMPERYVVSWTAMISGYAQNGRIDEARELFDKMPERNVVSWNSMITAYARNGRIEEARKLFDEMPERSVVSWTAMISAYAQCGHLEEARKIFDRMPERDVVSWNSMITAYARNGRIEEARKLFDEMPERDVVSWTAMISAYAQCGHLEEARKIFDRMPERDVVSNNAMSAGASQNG

T2: GFP-9S library array, motif 4 ND N98V;D124M (synthetic construct, N98V;D124M)
T2 chain: T1 chain with T98V, Y124M

T3: GFP-9S library array, motif 4 ND N98R;D124P (synthetic construct, N98R;D124P)
T3 chain: T1 chain with T98R, Y124P

T4: GFP-9S library array, motif 4 ND N98W;D124Q (synthetic construct, N98W;D124Q)
T4 chain: T1 chain with T98W, Y124Q

T5: GFP-9S library array, motif 4 ND N98Y;D124H (synthetic construct, N98Y;D124H)
T5 chain: T1 chain with T98Y, Y124H


Tests used:
Test in all cases: high-throughput RNA pulldown from lysate on Ni-NTA beads; HRP: 50 mM Tris pH 8, 150 mM NaCl, 1 mM beta-mercaptoethanol, 50 ug/ml BSA, 3 ug/ml yeast RNA, 0.5% heparin; ITC and FP: Tris pH 8, 200 mM KCl, 5% glycerol; MST: 50 mM Tris pH 8, 200 mM NaCl, 1 mM DTT, BSA, heparin, 0.05% Tween 20
Conditions in all cases: tags: N-terminal His-eGFP
[1] = target: T1, GFP-9S library array, motif 4 ND …
[2] = target: T2, GFP-9S library array, motif 4 ND …
[3] = target: T3, GFP-9S library array, motif 4 ND …
[4] = target: T4, GFP-9S library array, motif 4 ND …
[5] = target: T5, GFP-9S library array, motif 4 ND …

Binder	Kd ([1]; label: 5' Cy5)	Kd ([2]; label: 5' Cy5)	Kd ([3]; label: 5' Cy5)	Kd ([4]; label: 5' Cy5)	Kd ([5]; label: 5' Cy5)	Kd ([1]; label: 5' IRDye 800CW)	Kd ([2]; label: 5' IRDye 800CW)	Kd ([3]; label: 5' IRDye 800CW)	Kd ([4]; label: 5' IRDye 800CW)	Kd ([5]; label: 5' IRDye 800CW)
AUUACACGUGA (ssRNA) [Cy5-rpoA]	145 nM	148 nM	143 nM	101 nM	5.06 nM					
AUUAGACGUGA (ssRNA) [Cy5-rpoA-G]	105 nM	155 nM	151 nM	94.4 nM	46 nM					
AUUAAACGUGA (ssRNA) [IR-rpoA-A]						90.9 nM	431 nM	335 nM	224 nM	111 nM
AUUAUACGUGA (ssRNA) [IR-rpoA-U]						147 nM	294 nM	163 nM	195 nM	169 nM
